Experimental findings from patent US20250346676A1 are described below.

pIC50: −log10 of the molar value.

The target in experiment [1] is human recombinant CD64 (R&D Systems) (human) (UniProt P12314). As to the kind of experiment: SPR (Biacore T200); construct captured on Protein A, soluble CD64 as analyte. For orientation: In SPR one partner is held on a chip, and binding of the other changes the refractive index at the surface.
Experiment [2] has as its target FcγRIIb (UniProt P31994). As to the kind of experiment: TR-FRET competition with labeled competitor antibody on cells bearing the receptor. In general terms: Time-resolved FRET reads energy transfer from a long-lived donor to a nearby acceptor.
The target in experiment [3] is FcγRIIaH131 (human) (UniProt P12318). Described as above.
Experiment [4] has as its target FcγRIIIaV158 (UniProt P08637). The description is as above.

FcγRIIb, sequence (P31994 43-310 limits assumed): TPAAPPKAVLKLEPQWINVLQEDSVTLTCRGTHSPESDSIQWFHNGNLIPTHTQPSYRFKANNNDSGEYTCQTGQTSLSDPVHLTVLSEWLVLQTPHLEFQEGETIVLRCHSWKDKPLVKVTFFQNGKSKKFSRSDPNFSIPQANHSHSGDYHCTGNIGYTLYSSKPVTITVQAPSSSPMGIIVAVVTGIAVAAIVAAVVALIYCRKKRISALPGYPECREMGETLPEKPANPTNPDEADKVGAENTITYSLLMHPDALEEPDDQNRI
FcγRIIaH131 (human), sequence (P12318 34-317): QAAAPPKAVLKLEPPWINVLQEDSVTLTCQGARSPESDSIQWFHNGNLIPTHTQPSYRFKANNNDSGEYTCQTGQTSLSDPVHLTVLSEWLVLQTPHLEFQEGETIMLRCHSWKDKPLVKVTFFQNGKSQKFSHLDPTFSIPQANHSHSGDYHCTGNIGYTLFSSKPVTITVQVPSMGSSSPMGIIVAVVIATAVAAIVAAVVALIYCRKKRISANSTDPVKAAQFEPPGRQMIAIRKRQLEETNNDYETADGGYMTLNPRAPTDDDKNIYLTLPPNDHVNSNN
FcγRIIIaV158, sequence (P08637 17-254 F176V limits assumed): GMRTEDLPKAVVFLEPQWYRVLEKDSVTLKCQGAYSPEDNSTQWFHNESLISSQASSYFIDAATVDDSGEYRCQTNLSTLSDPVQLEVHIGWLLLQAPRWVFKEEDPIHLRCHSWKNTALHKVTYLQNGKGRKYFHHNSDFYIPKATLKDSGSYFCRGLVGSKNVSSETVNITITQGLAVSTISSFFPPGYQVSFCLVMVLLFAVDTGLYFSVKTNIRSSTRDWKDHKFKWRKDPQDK
human recombinant CD64 (R&D Systems) (human), sequence (P12314 16-288 limits assumed): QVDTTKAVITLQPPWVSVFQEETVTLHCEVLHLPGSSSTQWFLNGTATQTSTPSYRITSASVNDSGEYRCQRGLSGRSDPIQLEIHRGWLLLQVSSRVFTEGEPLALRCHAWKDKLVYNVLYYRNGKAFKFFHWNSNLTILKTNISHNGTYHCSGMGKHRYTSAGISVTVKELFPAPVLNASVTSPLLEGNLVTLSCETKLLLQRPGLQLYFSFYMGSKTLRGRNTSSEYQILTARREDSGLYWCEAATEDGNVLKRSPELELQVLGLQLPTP

Turning to “anti-CD20 monoclonal antibody (CDRs from Gazyva (obinutuzumab))”, the CD64 Valency by SPR in experiment [1] turned out to be 1.5. In addition, the pIC50 is 5.48 in experiment [2], 5.90 in experiment [3] and 6.37 in experiment [4].

As usually defined, the pIC50 is the IC50 on a negative log10 scale, so that one unit is a factor of ten. Low readings indicate a large IC50, high ones a small IC50.
